Data from US20090215686A1 (published 2009).

Tests used:
[1] = molecular target: T1, Met extracellular domain fragment (residues 25-567, sema domain and cysteine-rich domain) with C-terminal … (UniProt P08581 25-307; P08581 308-567); experiment: cell-based or functional assay
[2] = molecular target: T1, Met extracellular domain fragment …; experiment: AlphaScreen competition against biotin-NK1 binding to 6his-Met, 1 uM heparin
Method: (§1) The binding of NK1 to Met was determined by AlphaScreen assays using a hexahistidine detection kit from Perkin-Elmer. The experiment was performed using 10 nM biotin-NK1 and 6his-Met in the presence of 5 μg/ml donor and acceptor beads in a buffer containing 50 mM MOPS, pH7.4, 50 mM NaF, 0.05 mM CHAPS, and 0.1 mg/ml bovine serum albumin. Competition experiments were performed with 0.01 to 2.5 μM untagged ligand in the presence of 1 μM heparin and IC₅₀ values for NK1-Met interaction were determined from a nonlinear least square fit of the data. All experiments were duplicated or triplicated with standard errors typically less than 10% of the measurements. The Met dimerization assays were prepared using 40 nM of 6his-Met in the presence of 5 μg/ml nickel chelate donor and acceptor beads (Perkin-Elmer). The effect of Met ligands and heparin on Met dimerization was determined using 1 μM untagged ligand and 1 μM heparin.
(§2) In contrast to the Met dimerization activity, the Met binding activity of these NK1 mutants was little affected.

[3] = molecular target: T1, Met extracellular domain fragment …; experiment: AlphaScreen competition of unlabeled ligand against biotin-NK1 binding to 6his-Met, 1 uM heparin
Method: as §1
To determine the binding affinities of the various NK1s for Met, competition experiments were performed using unlabeled NK1 proteins (FIG. 1E). […] These quantitative measurements thus establish that the affinities of the NK1 fragments are 10-50 folds weaker than the full-length HGF.

[4] = molecular target: T1, Met extracellular domain fragment …; experiment: AlphaScreen, biotinylated NK1 on streptavidin donor beads and 6his-Met on nickel chelate acceptor beads, with heparin (sheet prints '+ 1 pM HEPARIN') [d]
Method: as §1
(§3) To determine the functional activity of the above purified proteins, the direct interactions of Met with the biotinylated NK1 were measured using AlphaScreen assays as illustrated in FIG. 1C. […] When NK1 interacts with Met, excitation of a laser beam at 680 nm causes the donor beads to emit single oxygen molecules to activate the fluorophores in the acceptor beads and a light signal is detected at 520-620 nm. […]

[5] = molecular target: T1, Met extracellular domain fragment …; experiment: AlphaScreen, biotinylated NK1 and histidine-tagged Met, with against without heparin
Method: as §1, §3

[6] = molecular target: T1, Met extracellular domain fragment …; experiment: SPR, MET567 amine-coupled to a CM5 chip, ligand in flow
Source text: (§4) Briefly, a CM5 chip was coated with MET567 by amine coupling chemistry. Ligand was then flowed through the cell at various concentrations to allow calculation of the dissociation equilibrium (KD).
(§5) NK1 versions of the above mutants were expressed in the yeast P. pastoris and purified to homogeneity.

[7] = molecular target: T1, Met extracellular domain fragment …; experiment: AlphaScreen competition: unlabeled NK1 mutant against biotinylated NK1 binding to 6his-Met, with heparin [b]
Method: as §1, §2

[8] = molecular target: T1, Met extracellular domain fragment …; experiment: SPR, MET567 amine-coupled to a CM5 chip, against wild type NK1
Source text: as §4, §5

[9] = molecular target: the molecule itself; experiment: crystal structure of mouse NK1
Method: Data were collected with a MAR 225 CCD detector at 5-ID (DND-CAT) of the Advance Photon Source (APS) located at Argonne National Laboratory. Crystals were flash frozen in liquid nitrogen after a quick wash in cryoprotectant solution containing 50 mM ammonium sulfate, 29% PEG 4000 or 1000 (w/w) (human or mouse NK1 respectively), 100 mM Tris-HCl pH 8.0, 0.5 or 0 mM βOG, 100 mM NaCl, and 15% ethylene glycol. Data was integrated and scaled with HKL2000 (Otwinowski and Minor, 1997). The human NK1 crystallized in space group P21, a=49.40 Å, b=51.81 Å, c=73.17 Å, and β=107.87°, and the mouse NK1 in P63 with a=b=86.49 Å, c=104.45 Å. The structure was solved by molecular replacement using the PDB coordinates 1NK1. Molecular replacement and model refinement were performed with CNS, where twin fraction was incorporated for the refinement for the mouse structure (Brunger et al., 1998). Manual model building was done with the program 0 (Jones et al., 1991).
To investigate the molecular mechanism by which NK1 induces Met dimerization, the crystal structure of mouse NK1 at a 2.4 Å resolution and a high resolution structure of human NK1 (1.8 Å) were determined for structural comparison.

B1: human HGF NK1 (residues 28-209), expressed in E. coli (ligand)
chain: YAEGQRKRRNTIHEFKKSAKTTLIKIDPALKIKTKKVNTADQCANRCTRNKGLPFTCKAFVFDKARKQCLWFPFNSMSSGVKKEFGHEFDLYENKDYIRNCIIGKGRSYKGTVSITKSGIKCQPWSSMIPHEHSFLPSSYRGKDLQENYCRNPRGEEGGPWCFTSNPEVRYEVCDIPQCSEV
notes: Expressed as a 6xHis-thioredoxin fusion; also called human NK1; wild type NK1
[1]
  Met dimerization signal (AlphaScreen), 1 µM NK1 without heparin; fold label over the bar [b]: 1 fold
  Met dimerization signal (AlphaScreen, 6his-Met on donor and acceptor beads), 1 µM NK1 with heparin; fold label over the bar [b]: 84 fold
[2]
  IC50: 49 nM
[3]
  IC50: ~100 nM
  fold weaker affinity than mouse NK1 and the human R134G mutant: 3 fold

B2: biotinylated human NK1 (ligand)
chain: YAEGQRKRRNTIHEFKKSAKTTLIKIDPALKIKTKKVNTADQCANRCTRNKGLPFTCKAFVFDKARKQCLWFPFNSMSSGVKKEFGHEFDLYENKDYIRNCIIGKGRSYKGTVSITKSGIKCQPWSSMIPHEHSFLPSSYRGKDLQENYCRNPRGEEGGPWCFTSNPEVRYEVCDIPQCSEV
modifications: biotin on the N-terminal biotin acceptor peptide (coexpressed BirA)
notes: Made from the His6-thioredoxin-NK1 vector, digested with thrombin, purified on monomeric avidin; also called biotin-NK1; biotinylated NK1; not shown: 20 amino acid biotin acceptor peptide from the pDW464 plasmid (Duffy et al., 1998)
[4]
  fold label beside the bar of NK1+MET with heparin (NK1-MET binding signal): 265 fold
[5]
  fold increase of the NK1-Met binding signal on addition of heparin: > 200 fold

B3: wild type NK1 expressed in P. pastoris (Example 7) (ligand)
chain: YAEGQRKRRNTIHEFKKSAKTTLIKIDPALKIKTKKVNTADQCANRCTRNKGLPFTCKAFVFDKARKQCLWFPFNSMSSGVKKEFGHEFDLYENKDYIRNCIIGKGRSYKGTVSITKSGIKCQPWSSMIPHEHSFLPSSYRGKDLQENYCRNPRGEEGGPWCFTSNPEVRYEVCDIPQCSEV
notes: Lietha 2001
[6]
  Kd: 183 nM

B4: NK1 K1 mutant K1D (V140A:I142A), P. pastoris (ligand)
chain: YAEGQRKRRNTIHEFKKSAKTTLIKIDPALKIKTKKVNTADQCANRCTRNKGLPFTCKAFVFDKARKQCLWFPFNSMSSGVKKEFGHEFDLYENKDYIRNCIIGKGRSYKGTASATKSGIKCQPWSSMIPHEHSFLPSSYRGKDLQENYCRNPRGEEGGPWCFTSNPEVRYEVCDIPQCSEV
[6]
  Kd: 160 nM

B5: human NK1 mutant R134G (ligand)
chain: YAEGQRKRRNTIHEFKKSAKTTLIKIDPALKIKTKKVNTADQCANRCTRNKGLPFTCKAFVFDKARKQCLWFPFNSMSSGVKKEFGHEFDLYENKDYIRNCIIGKGGSYKGTVSITKSGIKCQPWSSMIPHEHSFLPSSYRGKDLQENYCRNPRGEEGGPWCFTSNPEVRYEVCDIPQCSEV
notes: Positions count on wild type NK1; also called human R134G mutant; human R134G NK1
[1]
  Met dimerization signal (AlphaScreen), 1 µM NK1 without heparin; fold label over the bar [b]: 1 fold
  Met dimerization signal (AlphaScreen, 6his-Met on donor and acceptor beads), 1 µM NK1 with heparin; fold label over the bar [b]: 68 fold
[3]
  IC50: ~30 nM

B6: human NK1 mutant K85A/N127A in the R134G background (ligand)
chain: YAEGQRKRRNTIHEFKKSAKTTLIKIDPALKIKTKKVNTADQCANRCTRNKGLPFTCAAFVFDKARKQCLWFPFNSMSSGVKKEFGHEFDLYENKDYIRACIIGKGGSYKGTVSITKSGIKCQPWSSMIPHEHSFLPSSYRGKDLQENYCRNPRGEEGGPWCFTSNPEVRYEVCDIPQCSEV
notes: made in the R134G background
[7]
  IC50: 97 nM

B7: NK1 linker mutant LC (Y124A), P. pastoris (ligand)
chain: YAEGQRKRRNTIHEFKKSAKTTLIKIDPALKIKTKKVNTADQCANRCTRNKGLPFTCKAFVFDKARKQCLWFPFNSMSSGVKKEFGHEFDLYENKDAIRNCIIGKGRSYKGTVSITKSGIKCQPWSSMIPHEHSFLPSSYRGKDLQENYCRNPRGEEGGPWCFTSNPEVRYEVCDIPQCSEV
[6]
  Kd: 149 nM

B8: human NK1 mutant K85A/D123A in the R134G background (ligand)
chain: YAEGQRKRRNTIHEFKKSAKTTLIKIDPALKIKTKKVNTADQCANRCTRNKGLPFTCAAFVFDKARKQCLWFPFNSMSSGVKKEFGHEFDLYENKAYIRNCIIGKGGSYKGTVSITKSGIKCQPWSSMIPHEHSFLPSSYRGKDLQENYCRNPRGEEGGPWCFTSNPEVRYEVCDIPQCSEV
notes: made in the R134G background
[7]
  IC50: 75 nM

B9: human NK1 mutant K85A in the R134G background (ligand)
chain: YAEGQRKRRNTIHEFKKSAKTTLIKIDPALKIKTKKVNTADQCANRCTRNKGLPFTCAAFVFDKARKQCLWFPFNSMSSGVKKEFGHEFDLYENKDYIRNCIIGKGGSYKGTVSITKSGIKCQPWSSMIPHEHSFLPSSYRGKDLQENYCRNPRGEEGGPWCFTSNPEVRYEVCDIPQCSEV
notes: also called K85A NK1
[2]
  IC50: 32 nM

B10: human NK1 mutant Y124A in the R134G background (ligand)
chain: YAEGQRKRRNTIHEFKKSAKTTLIKIDPALKIKTKKVNTADQCANRCTRNKGLPFTCKAFVFDKARKQCLWFPFNSMSSGVKKEFGHEFDLYENKDAIRNCIIGKGGSYKGTVSITKSGIKCQPWSSMIPHEHSFLPSSYRGKDLQENYCRNPRGEEGGPWCFTSNPEVRYEVCDIPQCSEV
notes: also called Y124A NK1; Y124A mutant
[2]
  IC50: 39 nM

B11: NK1 double mutant LF (D123A:Y124A), P. pastoris (ligand)
chain: YAEGQRKRRNTIHEFKKSAKTTLIKIDPALKIKTKKVNTADQCANRCTRNKGLPFTCKAFVFDKARKQCLWFPFNSMSSGVKKEFGHEFDLYENKAAIRNCIIGKGRSYKGTVSITKSGIKCQPWSSMIPHEHSFLPSSYRGKDLQENYCRNPRGEEGGPWCFTSNPEVRYEVCDIPQCSEV
[8]
  fold reduced MET binding affinity: > 100 fold

B12: NK1 linker mutant LE (N127A), P. pastoris (ligand)
chain: YAEGQRKRRNTIHEFKKSAKTTLIKIDPALKIKTKKVNTADQCANRCTRNKGLPFTCKAFVFDKARKQCLWFPFNSMSSGVKKEFGHEFDLYENKDYIRACIIGKGRSYKGTVSITKSGIKCQPWSSMIPHEHSFLPSSYRGKDLQENYCRNPRGEEGGPWCFTSNPEVRYEVCDIPQCSEV
[6]
  Kd: 83 nM

B13: NK1 double mutant LG (D123A:N127A), P. pastoris (ligand)
chain: YAEGQRKRRNTIHEFKKSAKTTLIKIDPALKIKTKKVNTADQCANRCTRNKGLPFTCKAFVFDKARKQCLWFPFNSMSSGVKKEFGHEFDLYENKAYIRACIIGKGRSYKGTVSITKSGIKCQPWSSMIPHEHSFLPSSYRGKDLQENYCRNPRGEEGGPWCFTSNPEVRYEVCDIPQCSEV
[8]
  fold reduced MET binding affinity: > 100 fold

B14: mouse NK1 (ligand)
chain: YAEGQKKRRNTLHEFKKSAKTTLTKEDPLLKIKTKKVNSADECANRCIRNRGFTFTCKAFVFDKSRKRCYWYPFNSMSSGVKKGFGHEFDLYENKDYIRNCIIGKGGSYKGTVSITKSGIKCQPWNSMIPHEHSFLPSSYRGKDLQENYCRNPRGEEGGPWCFTSNPEVRYEVCDIPQCSEV
notes: also called mouse NK1 (E. coli)
[9]
  binding result: binds
[1]
  Met dimerization signal (AlphaScreen), 1 µM NK1 without heparin; fold label over the bar [b]: 1 fold
  Met dimerization signal (AlphaScreen, 6his-Met on donor and acceptor beads), 1 µM NK1 with heparin; fold label over the bar [b]: 46 fold
[3]
  IC50: ~30 nM
